Patent publication US20240116985A1, “STAPLED PEPTIDES AND METHODS THEREOF” (priority 2020, published 2024)
Starred links: 1 amine or outer side, 2 acyl side, 3 side chain; linkers in the order of their positions; H or OH if unused. Positions of bridges follow the written chain, without caps; N, C: chain ends. Non-standard residues stand in square brackets, D forms with d. Primed or numbered codes have the meaning given here. PyrS2″ = (S)-3-amino-1-((pent-4-en-1-yloxy)carbonyl)pyrrolidine-3-carboxylic acid (stapling residue), C=CCCCOC(=O)N1CC[C@@](N[*:1])(C(=O)[*:2])C1; SeN″ = (S)-5-(((allyloxy)carbonyl)(methyl)amino)-2-amino-2-methylpentanoic acid (stapling residue), C=CCOC(=O)N(C)CCC[C@](C)(N[*:1])C(=O)[*:2]; B5(4) = 2,2-bis(4-pentenyl)glycine = 2-amino-2-(pent-4-en-1-yl)hept-6-enoic acid (stitching residue), C=CCCCC(CCCC=C)(N[*:1])C(=O)[*:2]; TfeGA = (S)-2-amino-3-((carboxymethyl)(2,2,2-trifluoroethyl)amino)propanoic acid, O=C([C@H](CN(CC(=O)[*:3])CC(F)(F)F)N[*:1])[*:2]; B5(19) = 2-amino-2-(pent-4-en-1-yl)hept-6-enoic acid (bis(4-pentenyl)glycine), C=CCCCC(CCCC=C)(N[*:1])C(=O)[*:2]; B5(3) = 2,2-bis(4-pentenyl)glycine (stitching residue), C=CCCCC(CCCC=C)(N[*:1])C(=O)[*:2]; B5 = 2-amino-2-(pent-4-en-1-yl)hept-6-enoic acid, C=CCCCC(CCCC=C)(N[*:1])C(=O)[*:2]; Phe(3-CONH2) = NC(=O)c1cccc(C[C@H](N)C(=O)O)c1; Phe(3-Cl) = N[C@@H](Cc1cccc(Cl)c1)C(=O)O; Phe(3-OMe) = COc1cccc(C[C@H](N)C(=O)O)c1; Phe(3-F) = N[C@@H](Cc1cccc(F)c1)C(=O)O; Phe(3-Me) = Cc1cccc(C[C@H](N)C(=O)O)c1; Ala(cPent) = N[C@@H](CC1CCCC1)C(=O)O; Bta = N[C@@H](Cc1csc2ccccc12)C(=O)O; Lys(iPr) = CC(C)NCCCC[C@H](N)C(=O)O; αAllylPro = C=CC[C@@]1(C(=O)O)CCCN1; 2Pal = N[C@@H](Cc1ccccn1)C(=O)O; 4Pal = N[C@@H](Cc1ccncc1)C(=O)O; 2Thi = N[C@@H](Cc1cccs1)C(=O)O; Cha = N[C@@H](CC1CCCCC1)C(=O)O; S8 = C=CCCCCCC[C@](C)(N)C(=O)O; hSer = N[C@@H](CCO)C(=O)O; Nle = CCCC[C@H](N)C(=O)O

biological target: full-length beta-Catenin (Uniprot ID P35222) (Homo sapiens (Human)) (UniProt P35222); test: fluorescence polarization competition; 10 nM full-length beta-catenin + 10 nM 5FAM-TCF4(10-53) probe, peptide titrated
Target sequence in this assay (P35222 2-781 limits assumed): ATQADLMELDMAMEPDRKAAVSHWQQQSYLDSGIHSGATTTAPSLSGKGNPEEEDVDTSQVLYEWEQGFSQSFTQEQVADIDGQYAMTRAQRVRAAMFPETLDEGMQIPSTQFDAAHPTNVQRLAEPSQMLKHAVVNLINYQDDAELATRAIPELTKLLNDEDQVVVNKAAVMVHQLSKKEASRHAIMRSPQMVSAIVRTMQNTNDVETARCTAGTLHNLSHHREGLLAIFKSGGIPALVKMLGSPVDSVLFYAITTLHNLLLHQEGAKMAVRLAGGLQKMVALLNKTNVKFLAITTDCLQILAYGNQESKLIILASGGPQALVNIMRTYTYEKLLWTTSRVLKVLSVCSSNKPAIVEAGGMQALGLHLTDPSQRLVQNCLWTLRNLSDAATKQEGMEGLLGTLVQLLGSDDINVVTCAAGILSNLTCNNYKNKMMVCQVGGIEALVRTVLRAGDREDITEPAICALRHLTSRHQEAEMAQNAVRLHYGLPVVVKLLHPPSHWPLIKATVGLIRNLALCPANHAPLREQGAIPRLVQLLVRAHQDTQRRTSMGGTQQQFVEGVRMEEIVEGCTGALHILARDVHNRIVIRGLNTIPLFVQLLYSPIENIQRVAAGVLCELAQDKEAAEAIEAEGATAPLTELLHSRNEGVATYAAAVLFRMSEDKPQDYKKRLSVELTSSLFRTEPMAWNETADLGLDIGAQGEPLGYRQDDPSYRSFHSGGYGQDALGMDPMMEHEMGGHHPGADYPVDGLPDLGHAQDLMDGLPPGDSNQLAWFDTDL

In order of rising EC50:
1. Ac-[αAllylPro]DI[B5(3)]DEAAFQ[S8]F[Bta]-NH2 (staple 1-4, 4-11; also: staple isomer composition, later eluting HPLC peak) [I-409]  70 nM
2. Ac-[αAllylPro]DI[B5(3)]DEAAFQ[S8]F[Bta]-NH2 (staple 1-4, 4-11; also: staple isomer composition, earlier eluting HPLC peak) [I-408]  120 nM
3. Ac-[αAllylPro]DA[B5(4)]DEAA[2Thi]Q[S8][Phe(3-F)][Bta]Q-NH2 (staple 1-4, 4-11) [I-401]  134 nM
4. Ac-[αAllylPro]D[Nle][B5(3)]DEAAFA[S8]F[Bta]Q-NH2 (staple 1-4, 4-11) [I-411]  189 nM
5. Ac-[αAllylPro]DA[B5(3)]D[TfeGA]AA[Phe(3-Me)]Q[SeN″][Phe(3-F)][Bta]Q-NH2 (staple 1-4, 4-11) [I-405]  3820 nM
6. Ac-[αAllylPro]DA[B5(4)]D[2Thi]AAFV[S8][Phe(3-F)][Bta]Q-NH2 (staple 1-4, 4-11) [I-402]  5000 nM

biological target: full-length beta-Catenin (Uniprot ID P35222) (Homo sapiens (Human)) (UniProt P35222); test: fluorescence polarization competition; 10 nM full-length beta-catenin with 10 nM 5FAM-labeled TCF4 residues 10-53 probe (competitor displaced)
Target sequence in this assay (P35222 2-781 limits assumed): as above

In order of rising IC50:
1. Ac-[αAllylPro]N[Cha][B5(19)]DQ[Lys(iPr)]AFN[PyrS2″][Phe(3-CONH2)][Bta][hSer]-NH2 (staple 1-4, 4-11) [I-1929]  74 nM
2. Ac-[αAllylPro]N[Cha][B5(19)]D[hSer][Lys(iPr)]AFN[PyrS2″]F[Bta][hSer]-NH2 (staple 1-4, 4-11) [I-1933]  154 nM
3. Ac-[αAllylPro]N[Cha][B5(19)]DQ[Lys(iPr)]AFN[PyrS2″][Phe(3-Cl)][Bta][hSer]-NH2 (staple 1-4, 4-11) [I-1928]  887 nM
4. Ac-[αAllylPro]N[Cha][B5(19)]DQ[Lys(iPr)]AFN[PyrS2″][Phe(3-OMe)][Bta][hSer]-NH2 (staple 1-4, 4-11) [I-1930]  1560 nM
5. Ac-[αAllylPro]N[Cha][B5(19)]DQ[Lys(iPr)]SFN[PyrS2″]F[Bta][hSer]-NH2 (staple 1-4, 4-11) [I-1931]  1560 nM

biological target: full-length beta-Catenin (Uniprot ID P35222) (Homo sapiens (Human)) (UniProt P35222); test: fluorescence polarization competition; full-length beta-catenin with 5FAM-labeled TCF4 (residues 10-53) probe as competitor
Target sequence in this assay (P35222 whole entry, the tested form may be a part): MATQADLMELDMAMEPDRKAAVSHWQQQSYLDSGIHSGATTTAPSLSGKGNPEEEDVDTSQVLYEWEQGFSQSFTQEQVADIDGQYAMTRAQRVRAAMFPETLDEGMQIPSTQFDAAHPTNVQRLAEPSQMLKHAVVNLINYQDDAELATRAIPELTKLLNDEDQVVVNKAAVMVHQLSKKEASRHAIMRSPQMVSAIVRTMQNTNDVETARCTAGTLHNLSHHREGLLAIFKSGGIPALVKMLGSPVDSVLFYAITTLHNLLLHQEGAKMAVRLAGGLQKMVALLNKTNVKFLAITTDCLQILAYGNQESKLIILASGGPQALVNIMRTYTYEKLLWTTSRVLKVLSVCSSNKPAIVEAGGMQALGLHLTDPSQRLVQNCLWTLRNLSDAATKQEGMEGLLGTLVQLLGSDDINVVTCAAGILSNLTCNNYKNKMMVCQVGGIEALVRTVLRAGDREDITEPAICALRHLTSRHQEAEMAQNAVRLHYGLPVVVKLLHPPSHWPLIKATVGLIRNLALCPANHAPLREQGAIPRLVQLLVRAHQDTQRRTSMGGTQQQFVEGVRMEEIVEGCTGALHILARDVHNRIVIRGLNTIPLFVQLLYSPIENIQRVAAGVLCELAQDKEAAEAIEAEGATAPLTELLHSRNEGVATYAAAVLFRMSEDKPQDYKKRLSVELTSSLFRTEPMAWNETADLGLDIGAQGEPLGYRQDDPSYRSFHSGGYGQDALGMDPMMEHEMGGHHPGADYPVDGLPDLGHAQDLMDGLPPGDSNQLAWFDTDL

In order of rising IC50:
1. Ac-[αAllylPro]DI[B5(3)]DEAAFQ[S8]F[Bta]-NH2 (staple 1-4, 4-11; also: staple isomer composition, later eluting HPLC peak) [I-409]  70 nM
2. Ac-[αAllylPro]DI[B5(3)]DEAAFQ[S8]F[Bta]-NH2 (staple 1-4, 4-11; also: staple isomer composition, earlier eluting HPLC peak) [I-408]  120 nM
3. Ac-[αAllylPro]DA[B5(4)]DEAA[2Thi]Q[S8][Phe(3-F)][Bta]Q-NH2 (staple 1-4, 4-11) [I-401]  134 nM
4. Ac-[αAllylPro]DA[B5(4)]DEAAFV[S8][2Pal][Bta]Q-NH2 (staple 1-4, 4-11; also: later eluting staple isomer) [I-384]  177 nM
5. Ac-[αAllylPro]D[Nle][B5(3)]DEAAFA[S8]F[Bta]Q-NH2 (staple 1-4, 4-11) [I-411]  189 nM
6. Ac-[αAllylPro]DA[B5]DEAAFV[S8][Ala(cPent)][Bta]Q-NH2 (staple 1-4, 4-11) [I-393]  1950 nM
7. Ac-[αAllylPro]DA[B5]DEAA[2Pal]V[S8]F[Bta]Q-NH2 (staple 1-4, 4-11; not fully specified; printed as Ac-PL3-Asp-Ala-B5-Asp-Glu-Ala-Ala-2pyrA-Val-S8-Phe-BztA-Gln-NH2) [I-387]  2620 nM
8. Ac-[αAllylPro]DA[B5(4)]DEAAFV[S8][4Pal][Bta]Q-NH2 (staple 1-4, 4-11) [I-385]  3150 nM
9. Ac-[αAllylPro]DA[B5(3)]D[TfeGA]AA[Phe(3-Me)]Q[SeN″][Phe(3-F)][Bta]Q-NH2 (staple 1-4, 4-11) [I-405]  3820 nM
10. Ac-[αAllylPro]DA[B5(4)]DEAAFV[S8][Phe(3-Me)][Bta]Q-NH2 (staple 1-4, 4-11) [I-395]  5000 nM
11. Ac-[αAllylPro]DA[B5(4)]D[2Thi]AAFV[S8][Phe(3-F)][Bta]Q-NH2 (staple 1-4, 4-11) [I-402]  5000 nM
12. Ac-[αAllylPro]DA[B5]DEAA[Ala(cPent)]V[S8]F[Bta]Q-NH2 (staple 1-4, 4-11) [I-392]  5000 nM
13. Ac-[αAllylPro]DA[B5]DEAA[2Pal]V[S8]F[Bta]Q-NH2 (staple 1-4, 4-11; not fully specified; printed as Ac-PL3-Asp-Ala-B5-Asp-Glu-Ala-Ala-2pyrA-Val-S8-Phe-BztA-Gln-NH2) [I-386]  5000 nM

biological target: full-length beta-Catenin (Uniprot ID P35222) (Homo sapiens (Human)) (UniProt P35222); test: fluorescence polarization competition; 10 nM full-length beta-catenin, competitor 10 nM 5FAM-TCF4(10-53)
Target sequence in this assay (P35222 whole entry, the tested form may be a part): as above

In order of falling EC50:
1. Ac-[αAllylPro]DA[B5(4)]DEAAFV[S8][Phe(3-Me)][Bta]Q-NH2 (staple 1-4, 4-11) [I-395]  5000 nM
2. Ac-[αAllylPro]DA[B5]DEAA[Ala(cPent)]V[S8]F[Bta]Q-NH2 (staple 1-4, 4-11) [I-392]  5000 nM
3. Ac-[αAllylPro]DA[B5]DEAA[2Pal]V[S8]F[Bta]Q-NH2 (staple 1-4, 4-11; not fully specified; printed as Ac-PL3-Asp-Ala-B5-Asp-Glu-Ala-Ala-2pyrA-Val-S8-Phe-BztA-Gln-NH2) [I-386]  5000 nM
4. Ac-[αAllylPro]DA[B5(4)]DEAAFV[S8][4Pal][Bta]Q-NH2 (staple 1-4, 4-11) [I-385]  3150 nM
5. Ac-[αAllylPro]DA[B5]DEAA[2Pal]V[S8]F[Bta]Q-NH2 (staple 1-4, 4-11; not fully specified; printed as Ac-PL3-Asp-Ala-B5-Asp-Glu-Ala-Ala-2pyrA-Val-S8-Phe-BztA-Gln-NH2) [I-387]  2620 nM
6. Ac-[αAllylPro]DA[B5]DEAAFV[S8][Ala(cPent)][Bta]Q-NH2 (staple 1-4, 4-11) [I-393]  1950 nM
